The target of test [1] is human insulin receptor extracellular domain (HIR ECD) (human) (UniProt P06213). Nature of the test: ELISA, HIR ECD plated.
For test [2] the target is unchanged. Nature of the test: ELISA, HIR ECD plated, detection with biotinylated goat anti-human IgG. For orientation: An ELISA detects its analyte on a solid surface through an enzyme-linked reagent.
The target of test [3] is T1, human insulin receptor extracellular domain (HIR ECD) (human, UniProt P06213 28-956, limits assumed).
T1 construct: extracellular domain; Purified on a wheat germ agglutinin column from serum free medium of CHO cells permanently transfected with the HIR ECD (Coloma et al. 2000)
Nature of the test: ELISA, HIR ECD plated on Nunc-Maxisorb wells, detection with biotinylated goat anti-human IgG. The method, then:
(§1) The affinity of the fusion protein for the HIR extracellular domain (ECD) was determined with an ELISA. CHO cells permanently transfected with the HIR ECD were grown in serum free media (SFM), and the HIR ECD was purified with a wheat germ agglutinin affinity column, as previously described in Coloma et al. (2000) Pharm Res, 17:266-274. The HIR ECD was plated on Nunc-Maxisorb 96 well dishes and the binding of the HIR Ab, or the HIR Ab-IDS fusion protein, to the HIR ECD was detected with a biotinylated goat anti-human IgG (H+L) secondary antibody, followed by avidin and biotinylated peroxidase (Vector Labs, Burlingame, CA). The concentration of either HIR Ab or HIR Ab-IDS fusion protein that gave 50% maximal binding was determined with a non-linear regression analysis.

Test [4] addresses T1, human insulin receptor extracellular …. Nature of the test: ELISA, HIR ECD plated, same methods as for FIG. 11. On the procedure:
as §1

Take “GUSB-HIR Ab fusion protein (GUSB fused to the amino terminus of the HIR Ab heavy chain) (from UniProt P08236 23-633)”: the reduction in receptor binding affinity (against the HIR Ab) in test [1] turned out to be 95%. In test [2], the EC50 (commonly the concentration needed to bring the measured effect to its halfway point) was 4.8 nM.

B1: chimeric HIRMAb (chimeric monoclonal antibody to the human insulin receptor) (antibody, human IgG1, kappa, V domains shown)
VH: QVQLQQSGPELVKPGALVKISCKASGYTFTNYDIHWVKQRPGQGLEWIGWIYPGDGSTKYNEKFKGKATLTADKSSSTAYMHLSSLTSEKSAVYFCAREWAYWGQGTLVTVSA
VL: DIQMTQSPSSLSASLGERVSLTCRASQDIGGNLYWLQQGPDGTIKRLIYATSSLDSGVPKRFSGSRSGSDYSLTISSLESEDFVDYYCLQYSSSPWTFGGGTKMEIKR
notes: Human IgG1 constant region, kappa light chain; also called HIR Ab; chimeric HIR Ab
With B1, the values for the EC50 in test [3] and in test [4] were 0.32 nM and 0.41 nM, respectively.
